The values below come from paper PMC4175578.

This assay deals with N-terminal domain (residues 1-79) of HCV glycoprotein E1 ectodomain, N43Q (Hepatitis C virus, strain H77). As to the kind of experiment: SEC-MALS; analytical Superdex S200 10/30 with online static light scattering; protein not deglycosylated, ~4.2 mg/ml. A general note: Size exclusion chromatography separates by hydrodynamic size, large species first.

On to “N-terminal domain (residues 1-79) of HCV glycoprotein E1 ectodomain, N43Q (domain or fragment)”, for which the stoichiometry N was 2.

One may read the stoichiometry N as the number of molecules, sites or subunits per partner or assembly.
